This is an account of results in US20140087995A1 (published 2014).

Numbered stars: 1 amine (or outer) side, 2 acyl side, 3 side chain; on linkers, the order of the positions; unused ones are H or OH. Bridge positions count the residues as written; N and C are the ends. Side chains are listed from the residue outwards. Ends that are not written are not given here. * marks the point of attachment. C20 diacid = O=C(O)CCCCCCCCCCCCCCCCCCC(=O)*; γGlu = O=C(O)[C@H](CCC(=O)[*:2])N[*:1]

The labels stand for the following.
T1: human calcitonin receptor (human, UniProt P30988 25-474)
T1 construct: whole, on cells; Used as cell membranes; also called hCTR; hCT
T1 sequence (looked up): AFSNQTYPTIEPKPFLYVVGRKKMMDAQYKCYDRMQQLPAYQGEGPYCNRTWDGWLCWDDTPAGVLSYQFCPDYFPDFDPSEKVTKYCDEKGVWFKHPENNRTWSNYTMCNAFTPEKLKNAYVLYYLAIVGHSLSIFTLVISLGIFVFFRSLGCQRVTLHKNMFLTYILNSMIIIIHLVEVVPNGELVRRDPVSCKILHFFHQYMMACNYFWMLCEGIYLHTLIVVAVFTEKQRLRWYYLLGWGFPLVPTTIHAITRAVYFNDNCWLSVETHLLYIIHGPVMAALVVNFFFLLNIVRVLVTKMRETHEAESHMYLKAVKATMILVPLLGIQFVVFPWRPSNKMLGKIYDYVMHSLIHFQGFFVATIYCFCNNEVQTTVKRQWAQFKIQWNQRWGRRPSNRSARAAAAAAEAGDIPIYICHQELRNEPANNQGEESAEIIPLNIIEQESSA

B1: N^ε1-[(4S)-4-carboxy-4-(19-carboxynonadecanoylamino)butanoyl]-[Arg14,Arg17,Pro21,Pro27,Pro34]-h-amylin (peptide)
peptide: K([γGlu-C20 diacid])CNTATCATQRLARFLRHSSPNFGAIPSSTNVGPNTY-NH2
modifications: disulfide 2-7; N-terminus assumed
SMILES: CC[C@H](C)[C@H](NC(=O)[C@H](C)NC(=O)CNC(=O)[C@H](Cc1ccccc1)NC(=O)[C@H](CC(N)=O)NC(=O)[C@@H]1CCCN1C(=O)[C@H](CO)NC(=O)[C@H](CO)NC(=O)[C@H](Cc1c[nH]cn1)NC(=O)[C@H](CCCNC(=N)N)NC(=O)[C@H](CC(C)C)NC(=O)[C@H](Cc1ccccc1)NC(=O)[C@H](CCCNC(=N)N)NC(=O)[C@H](C)NC(=O)[C@H](CC(C)C)NC(=O)[C@H](CCCNC(=N)N)NC(=O)[C@H](CCC(N)=O)NC(=O)[C@@H](NC(=O)[C@H](C)NC(=O)[C@@H]1CSSC[C@H](NC(=O)[C@@H](N)CCCCNC(=O)CC[C@H](NC(=O)CCCCCCCCCCCCCCCCCCC(=O)O)C(=O)O)C(=O)N[C@@H](CC(N)=O)C(=O)N[C@@H]([C@@H](C)O)C(=O)N[C@@H](C)C(=O)N[C@@H]([C@@H](C)O)C(=O)N1)[C@@H](C)O)C(=O)N1CCC[C@H]1C(=O)N[C@@H](CO)C(=O)N[C@@H](CO)C(=O)N[C@H](C(=O)N[C@@H](CC(N)=O)C(=O)N[C@H](C(=O)NCC(=O)N1CCC[C@H]1C(=O)N[C@@H](CC(N)=O)C(=O)N[C@H](C(=O)N[C@@H](Cc1ccc(O)cc1)C(N)=O)[C@@H](C)O)C(C)C)[C@@H](C)O
notes: also called compound 65
B2: N^ε1-[(4S)-4-carboxy-4-(19-carboxynonadecanoylamino)butanoyl]-[Arg17,Pro21,Pro27,Arg34]-h-amylin (peptide)
peptide: K([γGlu-C20 diacid])CNTATCATQRLANFLRHSSPNFGAIPSSTNVGRNTY-NH2
modifications: disulfide 2-7; N-terminus assumed
SMILES: CC[C@H](C)[C@H](NC(=O)[C@H](C)NC(=O)CNC(=O)[C@H](Cc1ccccc1)NC(=O)[C@H](CC(N)=O)NC(=O)[C@@H]1CCCN1C(=O)[C@H](CO)NC(=O)[C@H](CO)NC(=O)[C@H](Cc1c[nH]cn1)NC(=O)[C@H](CCCNC(=N)N)NC(=O)[C@H](CC(C)C)NC(=O)[C@H](Cc1ccccc1)NC(=O)[C@H](CC(N)=O)NC(=O)[C@H](C)NC(=O)[C@H](CC(C)C)NC(=O)[C@H](CCCNC(=N)N)NC(=O)[C@H](CCC(N)=O)NC(=O)[C@@H](NC(=O)[C@H](C)NC(=O)[C@@H]1CSSC[C@H](NC(=O)[C@@H](N)CCCCNC(=O)CC[C@H](NC(=O)CCCCCCCCCCCCCCCCCCC(=O)O)C(=O)O)C(=O)N[C@@H](CC(N)=O)C(=O)N[C@@H]([C@@H](C)O)C(=O)N[C@@H](C)C(=O)N[C@@H]([C@@H](C)O)C(=O)N1)[C@@H](C)O)C(=O)N1CCC[C@H]1C(=O)N[C@@H](CO)C(=O)N[C@@H](CO)C(=O)N[C@H](C(=O)N[C@@H](CC(N)=O)C(=O)N[C@H](C(=O)NCC(=O)N[C@@H](CCCNC(=N)N)C(=O)N[C@@H](CC(N)=O)C(=O)N[C@H](C(=O)N[C@@H](Cc1ccc(O)cc1)C(N)=O)[C@@H](C)O)C(C)C)[C@@H](C)O
notes: also called compound 79
B3: N^ε1-[(4S)-4-carboxy-4-(19-carboxynonadecanoylamino)butanoyl]-[Glu14,Arg17,Pro21,Pro27,Pro34,Glu35]-h-amylin (peptide)
peptide: K([γGlu-C20 diacid])CNTATCATQRLAEFLRHSSPNFGAIPSSTNVGPETY-NH2
modifications: disulfide 2-7; N-terminus assumed
SMILES: CC[C@H](C)[C@H](NC(=O)[C@H](C)NC(=O)CNC(=O)[C@H](Cc1ccccc1)NC(=O)[C@H](CC(N)=O)NC(=O)[C@@H]1CCCN1C(=O)[C@H](CO)NC(=O)[C@H](CO)NC(=O)[C@H](Cc1c[nH]cn1)NC(=O)[C@H](CCCNC(=N)N)NC(=O)[C@H](CC(C)C)NC(=O)[C@H](Cc1ccccc1)NC(=O)[C@H](CCC(=O)O)NC(=O)[C@H](C)NC(=O)[C@H](CC(C)C)NC(=O)[C@H](CCCNC(=N)N)NC(=O)[C@H](CCC(N)=O)NC(=O)[C@@H](NC(=O)[C@H](C)NC(=O)[C@@H]1CSSC[C@H](NC(=O)[C@@H](N)CCCCNC(=O)CC[C@H](NC(=O)CCCCCCCCCCCCCCCCCCC(=O)O)C(=O)O)C(=O)N[C@@H](CC(N)=O)C(=O)N[C@@H]([C@@H](C)O)C(=O)N[C@@H](C)C(=O)N[C@@H]([C@@H](C)O)C(=O)N1)[C@@H](C)O)C(=O)N1CCC[C@H]1C(=O)N[C@@H](CO)C(=O)N[C@@H](CO)C(=O)N[C@H](C(=O)N[C@@H](CC(N)=O)C(=O)N[C@H](C(=O)NCC(=O)N1CCC[C@H]1C(=O)N[C@@H](CCC(=O)O)C(=O)N[C@H](C(=O)N[C@@H](Cc1ccc(O)cc1)C(N)=O)[C@@H](C)O)C(C)C)[C@@H](C)O
B4: N^ε1-[(4S)-4-carboxy-4-(19-carboxynonadecanoylamino)butanoyl]-[Glu14,Arg17,Pro21,Pro27,His34,Glu35]-h-amylin (peptide)
peptide: K([γGlu-C20 diacid])CNTATCATQRLAEFLRHSSPNFGAIPSSTNVGHETY-NH2
modifications: disulfide 2-7; N-terminus assumed
SMILES: CC[C@H](C)[C@H](NC(=O)[C@H](C)NC(=O)CNC(=O)[C@H](Cc1ccccc1)NC(=O)[C@H](CC(N)=O)NC(=O)[C@@H]1CCCN1C(=O)[C@H](CO)NC(=O)[C@H](CO)NC(=O)[C@H](Cc1c[nH]cn1)NC(=O)[C@H](CCCNC(=N)N)NC(=O)[C@H](CC(C)C)NC(=O)[C@H](Cc1ccccc1)NC(=O)[C@H](CCC(=O)O)NC(=O)[C@H](C)NC(=O)[C@H](CC(C)C)NC(=O)[C@H](CCCNC(=N)N)NC(=O)[C@H](CCC(N)=O)NC(=O)[C@@H](NC(=O)[C@H](C)NC(=O)[C@@H]1CSSC[C@H](NC(=O)[C@@H](N)CCCCNC(=O)CC[C@H](NC(=O)CCCCCCCCCCCCCCCCCCC(=O)O)C(=O)O)C(=O)N[C@@H](CC(N)=O)C(=O)N[C@@H]([C@@H](C)O)C(=O)N[C@@H](C)C(=O)N[C@@H]([C@@H](C)O)C(=O)N1)[C@@H](C)O)C(=O)N1CCC[C@H]1C(=O)N[C@@H](CO)C(=O)N[C@@H](CO)C(=O)N[C@H](C(=O)N[C@@H](CC(N)=O)C(=O)N[C@H](C(=O)NCC(=O)N[C@@H](Cc1c[nH]cn1)C(=O)N[C@@H](CCC(=O)O)C(=O)N[C@H](C(=O)N[C@@H](Cc1ccc(O)cc1)C(N)=O)[C@@H](C)O)C(C)C)[C@@H](C)O
notes: also called compound 107
B5: N^ε1-[(4S)-4-carboxy-4-(19-carboxynonadecanoylamino)butanoyl]-[Glu14,Arg17,Pro21,Pro27,Arg34,Glu35]-h-amylin (peptide)
peptide: K([γGlu-C20 diacid])CNTATCATQRLAEFLRHSSPNFGAIPSSTNVGRETY-NH2
modifications: disulfide 2-7; N-terminus assumed
SMILES: CC[C@H](C)[C@H](NC(=O)[C@H](C)NC(=O)CNC(=O)[C@H](Cc1ccccc1)NC(=O)[C@H](CC(N)=O)NC(=O)[C@@H]1CCCN1C(=O)[C@H](CO)NC(=O)[C@H](CO)NC(=O)[C@H](Cc1c[nH]cn1)NC(=O)[C@H](CCCNC(=N)N)NC(=O)[C@H](CC(C)C)NC(=O)[C@H](Cc1ccccc1)NC(=O)[C@H](CCC(=O)O)NC(=O)[C@H](C)NC(=O)[C@H](CC(C)C)NC(=O)[C@H](CCCNC(=N)N)NC(=O)[C@H](CCC(N)=O)NC(=O)[C@@H](NC(=O)[C@H](C)NC(=O)[C@@H]1CSSC[C@H](NC(=O)[C@@H](N)CCCCNC(=O)CC[C@H](NC(=O)CCCCCCCCCCCCCCCCCCC(=O)O)C(=O)O)C(=O)N[C@@H](CC(N)=O)C(=O)N[C@@H]([C@@H](C)O)C(=O)N[C@@H](C)C(=O)N[C@@H]([C@@H](C)O)C(=O)N1)[C@@H](C)O)C(=O)N1CCC[C@H]1C(=O)N[C@@H](CO)C(=O)N[C@@H](CO)C(=O)N[C@H](C(=O)N[C@@H](CC(N)=O)C(=O)N[C@H](C(=O)NCC(=O)N[C@@H](CCCNC(=N)N)C(=O)N[C@@H](CCC(=O)O)C(=O)N[C@H](C(=O)N[C@@H](Cc1ccc(O)cc1)C(N)=O)[C@@H](C)O)C(C)C)[C@@H](C)O

The target in one assay is T1, human calcitonin receptor. Put plainly: ratio of hCTR IC50 to hAmylin-R IC50 (reference: human amylin receptor). A digest of the protocol: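 Competition binding by SPA with cell membranes (35 ng/μL) and SPA beads in 50 mM Hepes pH 7.4 with 1 mM CaCl2, 5 mM MgCl2, 0.1% OA and 0.02% Tween20. Incubated 120 min at 25 °C with shaking, then counted.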
Turning to B1, the “Ratio hCT/hAmylin binding” value is 82.4.

Take B2: the “Ratio hCT/hAmylin binding” value was determined as 46.1.

In the case of B3, the “Ratio hCT/hAmylin binding” value was determined as 13.3.

As for B4, the “Ratio hCT/hAmylin binding” value came to 11.1.

As to B5, the “Ratio hCT/hAmylin binding” value was 28.5.

A further assay has as its target T1, human calcitonin receptor. Put plainly: SPA competition on BHK cell membranes, 125I-calcitonin as radioligand (Assay VII). A digest of the protocol: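 BHK hCTR membranes 35 ng/μL + SPA beads 0.05 mg/well; buffer 50 mM Hepes pH 7.4, 1 mM CaCl2, 5 mM MgCl₂, 0.1% OA, 0.02% Tween20. 120 min, 25° C., shaking. Scintillation count; IC50 by one-site binding competition.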
In general, IC50 refers to the midpoint of a concentration-inhibition curve. With B1, the IC50 stood at 53.5 nM.

In the case of B2, the IC50 came to 36.4 nM.

As to B3, the IC50 turned out to be 1.86 nM.

For the molecule B4, the concentration for half-maximal inhibition (IC50) worked out at 4.28 nM.

As to B5, the 50% inhibitory concentration (IC50) was determined as 6.62 nM.
